Experimental findings from article PMC7761207, “Molecular Characterization of the Burkholderia cenocepacia dcw Operon and FtsZ Interactors as New Targets for Novel Antimicrobial Design” (Antibiotics, 2020) are described below.

Read-outs that look alike come from different tables or passages of the source.

First the molecules themselves.
B2: B. cenocepacia J2315 FtsA, BACTH hybrid (natural protein, Burkholderia cenocepacia J2315, UniProt B4E6I8 1-410, looked up)
chain: MSKDYKDLLVSLDIGTSKVVAIVAELKGEGHYEVIGLGQSESKGLKKGVVVNIEATVQSIQRALEEAELMADCKITNVFTGIAGSHIRSFNSSGMVAIKDKEVTQTDVARVIETAKAINIPTDQQVLHILTQEFIIDGQEDVREPIGMSGIRLEVKVHIVTGAVSAAQNIVKCVRRCGLEVNDLILQPLASSLAVLTEDEKDLGVVLVDIGGGTTDIAIFAEGAIRHTAVIPIAGDQITSDIAMALRTPTPDAEDIKVGYGIAKQALADPDEMVEVPGLGERGPRTLSRQALAAVIEPRVEELFSLVQQVVRESGYEELLSSGVVITGGASMMPGMVELGEDIFLKPVRIGAPEYAGGLSDVVRNPRYSTAMGLLVEGSAQRMRGRKVAVQSGNAGQVFSRMKEWFLSNF
notes: FtsA of Burkholderia cenocepacia J2315 (gene ftsA, BCAL3458); Cloned in all four BACTH vectors; source: bacterial two-hybrid (BACTH) fusion, E. coli BTH101
B4: B. cenocepacia J2315 FtsZ, BACTH hybrid (natural protein, Burkholderia cenocepacia J2315, UniProt B4E5Y7 1-398, looked up)
chain: MEFEMLETETNGTIIKVVGVGGAGGNAVQHMINRGVQGVDFIVMNTDAQALSRSRASSVIQLGNTGLGAGAKPEMGRAAAEEARERIADALRGAHMVFITAGMGGGTGTGAAPVVAQIAKEMGILTVGVVSKPFEFEGGKRMRVAEAGSQQLEDHVDSLIVVLNDKLFDVMGDDAEMDKCFQCADDVLNNAVAGIAEIINVDGLVNVDFEDVKTVMGEQGKAMMGTATVAGVDRARLAAEQAVASPLLEGVDLSGARGVLVNITSSRSLRLSETREVMNTIKSYAAEDATVIFGAVYDDAMGDALRVTVVATGLGRAAKKQQSAPMTLLRTGTDNQPVSAVSHGYAPAQHVSTADYGALDTPAVWRNSRETAASHVQALQEKGVDTYDIPAFLRKQAD
notes: FtsZ of Burkholderia cenocepacia J2315; gene amplified from genomic DNA; Cloned in all four BACTH vectors (pUT18, pUT18C, pKT25, pKNT25); by its place between BCAL3458 and BCAL3456 probably BCAL3457 (surmised); source: bacterial two-hybrid (BACTH) fusion, E. coli BTH101

Data set [1] concerns the target B4. Description: two-hybrid; BACTH (bacterial adenylate cyclase two-hybrid) in E. coli cya strain BTH101; T18 and T25 hybrids; beta-galactosidase on LB-IPTG-X-Gal and MacConkey plates and in liquid culture, 30 C; at least four-fold over BTH101(pUT18/pKT25) counted as an interaction.
Data set [2] deals with T1, MraZ (Burkholderia cenocepacia J2315) (UniProt B4E6K1).
T1 sequence: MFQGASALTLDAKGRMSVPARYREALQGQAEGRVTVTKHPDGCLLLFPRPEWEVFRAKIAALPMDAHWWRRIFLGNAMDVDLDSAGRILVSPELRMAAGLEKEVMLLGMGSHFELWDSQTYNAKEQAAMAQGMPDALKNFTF
Description: EMSA. As to conditions: 20 mM Tris-HCl pH 7.5, 100 mM NaCl, 5 mM MgCl2, 0.1 mM DTT, 150 ng/uL BSA, 50 ng/uL herring sperm DNA, 30 min 37 C; 1.5% agarose in 0.5x TBE at 4 C.

Data set [3] deals with B. cenocepacia FtsZ, protein of the sedimentation assays (Burkholderia cenocepacia). Put plainly: co-sedimentation; with vesicles of E. coli total lipid extract (2 mg/mL); proteins 12 uM, 25 mM PIPES pH 6.8, 10 mM MgCl2, 2 mM GTP and/or ATP; 10 min 30 C; 20,000 x g 25 min 20 C.
For data set [4], the target named is B2. Description: two-hybrid; BACTH (bacterial adenylate cyclase two-hybrid) in E. coli cya strain BTH101; T18 and T25 hybrids; beta-galactosidase on LB-IPTG-X-Gal and MacConkey plates and in liquid culture, 30 C; at least four-fold over BTH101(pUT18/pKT25) counted as an interaction.
Data set [5] concerns the target B. cenocepacia J2315 FtsZ, BACTH hybrid (Burkholderia cenocepacia J2315) (UniProt B4E5Y7). The description is as above.
Data set [6] deals with T1, MraZ (Burkholderia cenocepacia J2315). Put plainly: competition. As to conditions: 20 mM Tris-HCl pH 7.5, 100 mM NaCl, 5 mM MgCl2, 0.1 mM DTT, 150 ng/uL BSA, 50 ng/uL herring sperm DNA, 30 min 37 C; 1.5% agarose in 0.5x TBE at 4 C.
Data set [7] concerns the molecule itself. Description: two-hybrid; BACTH (bacterial adenylate cyclase two-hybrid) in E. coli cya strain BTH101; T18 and T25 hybrids; beta-galactosidase on LB-IPTG-X-Gal and MacConkey plates and in liquid culture, 30 C; at least four-fold over BTH101(pUT18/pKT25) counted as an interaction.

For “B. cenocepacia J2315 ZapA, BACTH hybrid (natural protein)”, the β-galactosidase activity, fold over the control strain in data set [1] was found to be 10 fold. On to “GGAGCGGCCCGCTTTTTTGACGAATTTTGTTAGTTAGAACAAGGACTTACGCGCACATGCTCATGCGACCCCTCATTCCAAAAACCGTTATAAATGAATGAGCTAGTGCAACTTGTGAAGGTGATACGTGAGAAAGACGGCCCAGACGGGCGTGCGGACGGGGCTTTCGGGGGCGGGAAAACGAGGAGTGAGCGGGCGGTATCGGGGGCGGTGAACCGGGGCGGCGTCCCACGCCACCCCGGCGCCAATC (double strand) [BS1-6-Fam]”, for which the binding result in data set [2] was “no binding”. On to “B. cenocepacia J2315 FtsE, BACTH hybrid (natural protein)”, for which the β-galactosidase activity, fold over the control strain in data set [1] was determined as 50 fold.

Turning to “AAGTTGCACTAGCTCATTCATTTATAACGGTTTTTGGAATGAGGGGTCGCATGAGCATGTGCGCGTAAGTCCTTGTTCTAACTAACAAAATTCGTCAAAAAAGCGGGCCGCTCCCTTGACCGTGCCACACCCTTCCTCTAAAGTGGGAGACAGTGTGAGAAAGTGTATTTTTGTGTGATTTAGCAGGCTATTCCGGCTAAATTCTCAGCATTGAGCGGGTGCTTCGGTGCCCTGAACGGGAGAGCGGAAA (double strand) [BS2-6-Fam]”, the binding result in data set [2] was “binds”. For “B. cenocepacia FtsZ, protein of the sedimentation assays (natural protein)”, the percent of the protein in the pellet fraction in data set [3] was determined as 50%.

With “B. cenocepacia J2315 FtsN, BACTH hybrid (natural protein)”, in data set [4], the β-galactosidase activity, fold over the control strain worked out at 5 fold. For the molecule “B. cenocepacia J2315 FtsQ, BACTH hybrid (natural protein)”, the β-galactosidase activity, fold over the control strain in data set [5] worked out at 16 fold. As to “AAGTTGCACTAGCTCATTCATTTATAACGGTTTTTGGAATGAGGGGTCGCATGAGCATGTGCGCGTAAGTCCTTGTTCTAACTAACAAAATTCGTCAAAAAAGCGGGCCGCTCCCTTGACCGTGCCACACCCTTCCTCTAAAGTGGGAGACAGTGTGAGAAAGTGTATTTTTGTGTGATTTAGCAGGCTATTCCGGCTAAATTCTCAGCATTGAGCGGGTGCTTCGGTGCCCTGAACGGGAGAGCGGAAA (double strand) [BS2 unlabeled]”, the binding result in data set [6] was “binds”.

B1: putative SulA (pBCA006) of B. cenocepacia J2315, BACTH hybrid (natural protein, Burkholderia cenocepacia J2315, UniProt B4EQP0 1-238, looked up)
chain: MHPALAHPEAIHPALWRASQLARPSVRGVDTGHLELTAELPGGGWPAGALIELLAPQPGIGELRLLAPVLARTAGKPVMLIQPPHALQPLALAYWGIDPSGFVTLPAPRTADALWAAEQALRAGTCAAVLLWQSHVRADALRRLNLAAQSGQALFYLFRPVAAARDASPAPLRLALAPKRDGIDVTFLKRRGPARDTPLFVPLSPSPILLNRHASLDRRASAAPQPRSVPATIAGAVA
notes: putative SulA, product of gene pBCA006 of Burkholderia cenocepacia J2315; Cloned in all four BACTH vectors; source: bacterial two-hybrid (BACTH) fusion, E. coli BTH101
With B1, the “β-galactosidase activity, fold over the control strain” value (“β-galactosidase activity, fold” for short) in data set [1] (partners not purified) amounted to 25 fold. Turning to B2, the “β-galactosidase activity, fold” value in data set [1] (partners not purified) is 5 fold.

B3: B. cenocepacia J2315 ZipA, BACTH hybrid (natural protein, Burkholderia cenocepacia J2315, UniProt B4ECN7 1-424, looked up)
chain: MDELTLGLIGAGAVVVGGVVVYNAWQGAKVRRRMPRPMPEEAAEAMNRPERDEELPFIEPVRQPVRREPAAPVAAATAAAETARVEPTFGGAAPADTPADLQAEATGVDTSAESSEPAAGEEAVPAATHDAAAEPAEPTEPVMPAATTVSSAPPAIVDRRIDCIVPIRLTGPLPGDKILPVAQRLRRAGSKPVHIEGKPEGGQWELLQNGVRYEELRAAAQLANRSGALNELEFSEFVTGVQQFADAIDGAPEFPDMMETVAMARELDAFAAQCDAQLSINVMSDGAPWSANYVQAVASQDGLLLSRDGTRFVKLDAKQNPVFMLQFGDTNFLRDDLTYKGGNMITLVLDVPVAEEDILPFRLMCDYAKSLSERIGARVVDDSRRPLPESTLLAIEQQLMKLYAKLEEAGIPAGSPVTRRLFSQ
notes: ZipA of Burkholderia cenocepacia J2315 (gene zipA, BCAL2097); Cloned in all four BACTH vectors; source: bacterial two-hybrid (BACTH) fusion, E. coli BTH101
B3: the “β-galactosidase activity, fold” value amounted to 4.5 fold in data set [1] (partners not purified) and 32 fold in data set [4] (partners not purified). In the case of B4, the “β-galactosidase activity, fold” value in data set [7] worked out at 5 fold.
